Patent publication US20170253873A1 (MAYO FOUNDATION FOR MEDICAL EDUCATION AND RESEARCH, published 2017)

B1: GST fusion of the amino half of SNX9 (SH3 and low complexity (LC) domains) (other, UniProt Q9Y5X1 1-203, looked up)
chain: MATKARVMYDFAAEPGNNELTVNEGEIITITNPDVGGGWLEGRNIKGERGLVPTDYVEILPSDGKDQFSCGNSVADQAFLDSLSASTAQASSSAASNNHQVGSGNDPWSAWSASKSGNWESSEGWGAQPEGAGAQRNTNTPNNWDTAFGHPQAYQGPATGDDDDWDEDWDGPKSSSYFKDSESADAGGAQRGNSRASSSSMKI
notes: domain: SH3 and low complexity (LC) domains; also called amino terminal peptide; not shown: glutathione S-transferase (GST) tag
B2: GST fusion of the first 74 amino acids of SNX9 encoding the SH3 domain (other, UniProt Q9Y5X1 1-74, looked up)
chain: MATKARVMYDFAAEPGNNELTVNEGEIITITNPDVGGGWLEGRNIKGERGLVPTDYVEILPSDGKDQFSCGNSV
notes: range 1-74; also called SH3 domain of sorting nexin 9; SNX9 SH3 domain; not shown: glutathione S-transferase (GST) tag
B3: GST fusion of the LC (low complexity) domain of SNX9 (other, UniProt Q9Y5X1 63-203, looked up)
chain: DGKDQFSCGNSVADQAFLDSLSASTAQASSSAASNNHQVGSGNDPWSAWSASKSGNWESSEGWGAQPEGAGAQRNTNTPNNWDTAFGHPQAYQGPATGDDDDWDEDWDGPKSSSYFKDSESADAGGAQRGNSRASSSSMKI
notes: domain: LC domain; It overlaps the 1-74 fragment; also called LC domain; not shown: glutathione S-transferase (GST) tag
B4: phosphorylated Smad2 (pSmad2) (other, UniProt Q62432 2-467, looked up)
chain: SSILPFTPPVVKRLLGWKKSAGGSGGAGGGEQNGQEEKWCEKAVKSLVKKLKKTGRLDELEKAITTQNCNTKCVTIPSTCSEIWGLSTANTVDQWDTTGLYSFSEQTRSLDGRLQVSHRKGLPHVIYCRLWRWPDLHSHHELKAIENCEYAFNLKKDEVCVNPYHYQRVETPVLPPVLVPRHTEILTELPPLDDYTHSIPENTNFPAGIEPQSNYIPETPPPGYISEDGETSDQQLNQSMDTGSPAELSPTTLSPVNHSLDLQPVTYSEPAFWCSIAYYELNQRVGETFHASQPSLTVDGFTDPSNSERFCLGLLSNVNRNATVEMTRRHIGRGVRLYYIGGEVFAECLSDSAIFVQSPNCNQRYGWHPATVCKIPPGCNLKIFNNQEFAALLAQSVNQGFEAVYQLTRMCTIRMSFVKGWGAEYRRQTVTSTPCWIELHLNGPLQWLDKVLTQMGSPSVRCSSMS
modifications: phosphorylated (sites not given)
notes: Endogenous protein from AKR-2B cell lysate, detected by Western blot with a phospho-Smad2 specific antibody
B5: GST fusion of the carboxyl half of SNX9 (Phox and BAR domains) (other, UniProt Q9Y5X1 204-595, looked up)
chain: PLNKFPGFAKPGTEQYLLAKQLAKPKEKIPIIVGDYGPMWVYPTSTFDCVVADPRKGSKMYGLKSYIEYQLTPTNTNRSVNHRYKHFDWLYERLLVKFGSAIPIPSLPDKQVTGRFEEEFIKMRMERLQAWMTRMCRHPVISESEVFQQFLNFRDEKEWKTGKRKAERDELAGVMIFSTMEPEAPDLDLVEIEQKCEAVGKFTKAMDDGVKELLTVGQEHWKRCTGPLPKEYQKIGKALQSLATVFSSSGYQGETDLNDAITEAGKTYEEIASLVAEQPKKDLHFLMECNHEYKGFLGCFPDIIGTHKGAIEKVKESDKLVATSKITLQDKQNMVKRVSIMSYALQAEMNHFHSNRIYDYNSVIRLYLEQQVQFYETIAEKLRQALSRFPVM
notes: domain: Phox and BAR domains; not shown: glutathione S-transferase (GST) tag
B6: TAT-SH3-2M (TAT-SH3-2 with G to V mutations at amino acids 36-38) (designed binder)
chain: TVNEGEIITITNPDVVVVWLEGRNIKGERGL
notes: range 21-51; Mutant of TAT-SH3-2; also called Control peptide; not shown: His tag, cell penetrating TAT polypeptide from HIV and HA tag

How the values were obtained:
[1] = biological target: B4; experiment: GST pull-down from AKR-2B lysate, Western blot
Description: Lysates from AKR-2B cells untreated (−) or stimulated (+) for 45 minutes with 5 ng/mL TGFβ were incubated with GST beads or the indicated fusion polypeptides immobilized on GST beads. Bound polypeptides were eluted and assessed by Western analysis for pSmad3 or pSmad2. Cell lysate reflects signal obtained from 10 μg total protein. (B) AKR-2B cells were transduced for 90 minutes with the indicated concentrations of the TAT-SNX9(SH3) fusion polypeptides. Following washing and 1 hour TGFβ (5 ng/mL) treatment, nuclear fractions were isolated, and Western blotted for pSmad2, pSmad3, or histone deacetylase 1 (HDAC) (Left). Quantitation of nuclear pSmads was performed with Image J software and represents the mean+/−sd of two experiments (Right). […] Immunofluorescence for Smad3 or the HA-tagged TAT-SNX9(SH3) fusion polypeptide was performed, and nuclei were stained with DAPI (Left panels). Quantitation of nuclear Smad3 from 30 cells in each of two experiments (Right).
To assess SNX9 binding to GST or His constructs, cells were incubated in the presence or absence of 5 ng/mL TGFβ for 45 minutes. Following RIPA buffer lysis, 500 μg of protein was precleared with GST Resin or TALON Metal Affinity Resin for 2 hours at 4° C. Precleared cell lysates were then treated with 5 μg purified GST- or His-fusion proteins and incubated overnight at 4° C. with gentle shaking. Following addition of GST or TALON Metal Affinity Resin and 2 hours of incubation, the pelleted (3,000×g; 10 minutes) resin was washed several times with PBS, and the remaining proteins were eluted using 1× Laemmli sample buffer. Western blotting was performed as described above.

[2] = biological target: T1, GST full length (FL) SNX9 (UniProt Q9Y5X1 1-595); experiment: GST pull-down from AKR-2B lysate, Western blot
T1 construct: GST fusion used in pull-down; also called GST-FL SNX9; not shown: glutathione S-transferase (GST) tag

[3] = biological target: T2, phosphorylated Smad3 (pSmad3) (UniProt Q8BUN5 2-425, phosphorylated (sites not given)); experiment: GST pull-down from AKR-2B lysate, Western blot
T2 construct: Endogenous protein from AKR-2B cell lysate, detected by Western blot with a phospho-Smad3 specific antibody; also called phosphorylated (p) Smad3
T2 sequence (Q8BUN5 2-425 limits assumed): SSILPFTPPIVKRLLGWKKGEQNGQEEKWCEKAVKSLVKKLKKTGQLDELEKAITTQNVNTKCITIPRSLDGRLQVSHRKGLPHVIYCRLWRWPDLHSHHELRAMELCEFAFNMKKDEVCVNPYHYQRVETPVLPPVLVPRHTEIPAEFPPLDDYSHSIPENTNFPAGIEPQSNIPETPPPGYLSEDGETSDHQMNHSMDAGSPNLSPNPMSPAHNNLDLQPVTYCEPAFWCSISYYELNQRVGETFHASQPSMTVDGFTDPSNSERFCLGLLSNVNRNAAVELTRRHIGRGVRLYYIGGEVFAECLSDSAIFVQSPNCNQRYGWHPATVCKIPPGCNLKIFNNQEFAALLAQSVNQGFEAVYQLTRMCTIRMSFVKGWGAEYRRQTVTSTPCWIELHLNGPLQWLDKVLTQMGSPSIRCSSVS

[4] = biological target: T2, phosphorylated Smad3 (pSmad3); experiment: His pull-down from AKR-2B lysate, Western blot

| Binder | binding result [1] | also measured |
| --- | --- | --- |
| B1 | no binding |  |
| B2 | no binding |  |
| B3 | no binding |  |
| B4 |  | binding result [2]: no binding |
| B5 | no binding | binding result [3]: no binding |
| B6 |  | binding result [4]: no binding |
